This is an account of results in patent WO2021251460A1 (dated 2021).

The target of test [1] is T1, human Glypican-1 (human, UniProt P35052 24-530).
T1 construct: Endogenous GPC1 on human cancer cell lines: BxPC-3 in the FACS and internalization assays; TE8, TE14, BxPC3, KP-2 and PK-8 in the ADC assay; also called GPC-1; GPC1
T1 sequence: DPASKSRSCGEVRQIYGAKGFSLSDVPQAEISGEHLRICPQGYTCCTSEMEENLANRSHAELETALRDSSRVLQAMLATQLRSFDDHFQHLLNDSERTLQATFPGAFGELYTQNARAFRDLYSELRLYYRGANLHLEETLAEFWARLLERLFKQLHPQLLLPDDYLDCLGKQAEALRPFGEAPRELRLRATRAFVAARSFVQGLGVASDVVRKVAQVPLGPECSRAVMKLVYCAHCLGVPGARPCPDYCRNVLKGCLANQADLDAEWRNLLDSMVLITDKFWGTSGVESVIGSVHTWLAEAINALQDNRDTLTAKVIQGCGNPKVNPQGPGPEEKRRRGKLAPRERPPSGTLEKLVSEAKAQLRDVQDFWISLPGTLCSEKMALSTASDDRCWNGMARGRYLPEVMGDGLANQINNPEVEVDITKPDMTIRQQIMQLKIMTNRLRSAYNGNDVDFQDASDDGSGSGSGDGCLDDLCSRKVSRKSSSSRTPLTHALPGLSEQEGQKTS
Put plainly: FACS titration on BxPC-3 cells, FITC anti-mouse IgG secondary.

The target in test [2] is T1, human Glypican-1. Put plainly: FACS on BxPC-3 cells pre-treated with GPC1-ADC (01a033) MMAE, streptavidin-PE detection.

B1: anti-GPC1 monoclonal antibody (clone K090-01a033) (antibody, mouse IgG2a, kappa, V domains shown)
VH: QVQLKQSGPELVKPGASVKISCKASGYSFTGYYMHWVKQSPEKSLEWIGEINPSTGDTTYNQKFKAKATLTVDKSSSTAYMQLKSLTSEDSAVYYCAREKRDDGVFAYWGQGTLVTVSS
VL: DIVMSQSPKSMSMSVGERVALSCKASENVGTYVSWYQQKPEQSPKLLIYGASNRYTGVPDRFTGSGSATDFTLTISSVQAEDLADYYCGQSYSYPLTFGAGTKLELKR
notes: Mouse monoclonal antibody; mouse IgG2a kappa (MOPC173) was used as its isotype control; also called mouse anti-GPC-1 clone 01a033; mouse anti-human Glypican-1 mAb (01a033)
For the molecule B1, the binding result with human Glypican-1 [1] is recorded as “binds”.

B2: GPC1-ADC (01a033) MMAE (antibody, mouse IgG2a, kappa, V domains shown)
VH: QVQLKQSGPELVKPGASVKISCKASGYSFTGYYMHWVKQSPEKSLEWIGEINPSTGDTTYNQKFKAKATLTVDKSSSTAYMQLKSLTSEDSAVYYCAREKRDDGVFAYWGQGTLVTVSS
VL: DIVMSQSPKSMSMSVGERVALSCKASENVGTYVSWYQQKPEQSPKLLIYGASNRYTGVPDRFTGSGSATDFTLTISSVQAEDLADYYCGQSYSYPLTFGAGTKLELKR
modifications: MC-vc-PAB-MMAE on reduced interchain cysteine residues; DAR 3.7 per antibody; MC-vc-PAB-MMAE (maleimidocaproyl-valine-citrulline-p-aminobenzyloxycarbonyl-monomethyl auristatin E) on reduced interchain cysteine residues; DAR 3.7 per antibody
notes: also called GPC1-ADC (MMAE); αGPC1-CL-MMAE
B2: the binding result with human Glypican-1 [1] is reported as “binds”.

B3: biotin-labeled anti-GPC1 antibody 02b006 (antibody, mouse IgG2a, kappa, V domains shown)
VH: EVQLVESGGGLVKPGGSRKLSCAASGFTFSDYGMHWVRQAPEKGLEWVAYISSGSSTIYYADTVKGRFTISRDNAKNTLFLQMTSLRSEDTAIYYCVRHSYYNYDIGGYYAMDYWGQGTSVTVSS
VL: DIVLTQSPSSLSASLGERVSLTCRASQEISGYLSWLQQKPDGTIKRLIYAASTLDSGVPKRFSGSRSGSDYSLTISSLESEDFADYYCLQYASYPLTFGAGTKLEIKR
modifications: biotin-labeled (site not given)
notes: Detection antibody for GPC1 left on the cell surface in the internalization assay, read out with streptavidin-PE; also called anti-GPC1 mAb (biotin-labeled 02b006); K090-02b006
With B3, the binding result with human Glypican-1 [2] is recorded as “binds”.
